{
  "source": "patent US20090298178A1",
  "about": "“GROWTH FACTORS FOR PRODUCTION OF DEFINITIVE ENDODERM” (priority 2008, published 2009)",
  "molecules": {"B1": {"name": "Wnt3a: Wnt protein (R&D Systems) activating the Wnt signaling pathway (protein, UniProt P56704 19-352, looked up)", "Protein Wnt-3a": "SYPIWWSLAVGPQYSSLGSQPILCASIPGLVPKQLRFCRNYVEIMPSVAEGIKIGIQECQHQFRGRRWNCTTVHDSLAIFGPVLDKATRESAFVHAIASAGVAFAVTRSCAEGTAAICGCSSRHQGSPGKGWKWGGCSEDIEFGGMVSREFADARENRPDARSAMNRHNNEAGRQAIASHMHLKCKCHGLSGSCEVKTCWWSQPDFRAIGDFLKDKYDSASEMVVEKHRESRGWVETLRPRYTYFKVPTERDLVYYEASPNFCEPNPETGSFGTRDRTCNVSSHGIDGCDLLCCGRGHNARAERRREKCRCVFHWCCYVSCQECTRVYDVHTCK"}},
  "key": {"[1]": {"test_system": "hES cells (CyT49; passage 35)", "assay": "Differentiation of hES cells to definitive endoderm with activin A plus Wnt3a or GSK3 inhibitors, real-time quantitative PCR at 48 hours (Example 4)", "assay_type": "cell-based, human", "details": "with 100 ng/mL activin A; Wnt3a 25, 50 or 75 ng/mL; GSK3 inhibitor No.15 at 10 nM; FIG. 6A-B", "method": "Undifferentiated hES cells (CyT49; passage 35) were maintained substantially as described in Example 1 above. Ten hES cell culture plates were then differentiated in RPMI (Mediatech) supplemented with Glutamax, penicillin/streptomycin, and varying concentrations of defined FBS (HyClone). FBS concentrations were 0% for the first 24 h and 0.2% for the second 24 h. Additionally, 0.1% BSA (Invitrogen/Gibco) was added on the first day only. All plates received 100 ng/mL activin A for both days. […] Replicate samples were collected from each culture condition at 48 hours after differentiation commenced and analyzed for relative gene expression using real-time quantitative PCR."}, "[2]": {"test_system": "hES cells (CyT49; passage 35)", "assay": "Further differentiation to pancreatic endoderm and endocrine cells, real-time PCR at 10 days (Example 4)", "assay_type": "cell-based, human", "details": "definitive endoderm produced using Wnt3a at 50 or 75 ng/ml or GXV at 10 nM, FIG. 7", "method": "Human ES cell cultures were maintained and differentiated substantially as described above in Example 1, and further differentiated to foregut endoderm (stage 2) and then onto pancreatic endoderm and pancreatic endocrine cells (stages 3 and 4). After 48 hours of differentiation to definitive endoderm (stage 1) the cells were briefly washed in PBS+/+ and then further differentiated in RPMI supplemented with 0.2% FBS, Insulin-Transferrin-Selenium (1:1000), Glutamax, penicillin/streptomycin, and 25 ng/mL KGF (R&D Systems) for 3 days. On the first day of stage 2, the culture also received TGF-beta inhibitor No. 4 (3-(6-Methylpyridin-2-yl)-4-(4-quinolyl)-1-phenylthiocarbamoyl-1H-pyrazole) at 2.5 uM (EMD Bioscience). After three days in stage 2 the cells were then differentiated for one day in DMEM with B27 supplement (1:100) containing all-trans retinoic acid (RA) at 0.2 uM and KAAD-cyclopamine at 0.25 uM. Following the single day of retinoid exposure, the cells were cultured in DMEM with B27 (1:100) containing noggin at 40 ng/ml. […]\nHowever, in this instance, the stage 4 noggin treatment lasted for 4 days, as compared to 3 days in Example 2, and replicate samples were taken for real-time PCR analysis at a total of 10 days of differentiation, as compared to 9 days in Example 2."}},
  "data": [
    {"molecule": "B1", "values": [
      {"measurement": "expression levels of SOX17 and FOXA2 at 48 hours of differentiation as compared to the other GSK inhibitors", "setting": "[1]", "result": "substantially higher"},
      {"measurement": "abundance of pancreatic endoderm and endocrine cell types (PDX1, PTF1A, NKX6-1 and NKX2-2 induction)", "setting": "[2]", "result": "much greater abundance"}
    ]}
  ]
}
